This note sets out measurements from the DeepSol protein solubility set.

This data set in a line: soluble on expression in E. coli; label from the status in PepcDB or PDB records.
With “MPTLPRAANSRWRSLKIGLAPDLGLDDNGSLLLDFGPRQFTVSFDETLKPFVRDVSGSRLKDLPKPNKSDDETRANDAVNRYKLLKKDARTIAAQQVARLESAMCLRRRWSLENFQLFLVEHPLVRHLTRRLIWGVYSAENQLLACFRVAEDNSSSTADDDLFTLPEGDISIGTPHVLEISPTDAAAFGQLFADYELLPPFRQLDRNSYALTEAERNASELTRWAGRKCPSGRVMGLANKGWIKGEPQDGGWIGWMIKPLGRWSLIMEIDEGFAVGMSPAELSAEQLLSKLWLWEGKAERYGWGSNSTQEAQFSVIDAITASELINDIEALFE”, the “soluble on expression in E. coli” value was “not soluble”.
As for “MSSRPPFGIVKPSKPTGNPSSGSSELDSTAQPPQERGTDLQRASSGSDVHGHPSPGSQSHNLTSAQSGGRNAHKDLHERHVHPSQGYQRHGSKAPAHGHPSSQGARRSQLKLSNFPKLLANLMQDTKATQDFNSKYHSDFKKSKNSLITGESIFKFSHGIINFFFGRTSASCASNQDTLQPTASTMSDGEPEEDKVKLCGNRLEVGVTDNLAGTQRRKEQQQLQGAQAKKQQAPQRVVNRKANHQKLSRKRRYAPYKDDVIGAHGFFNNMR”, the “soluble on expression in E. coli” value is recorded as “not soluble”.
On to “MDLSNRTVLIVGGTSGIGRELARRFAAAGSTVAVGGRSPEALSELAGEGFGTISIDVTDSASVASARDAVLARYPELDTVVTMPGIMLLEDLRDPAHFEAAATTIDTNLVGTIRVIDAFTPHLVRRGAGTFITVTSGIAFLPFPPMPTYAASKAAVHAYSEALRAQLDGTGVSVVELVPPAVATAGQEKVNPHALPLDDFATEVVQLLSEDPTPREILVKAALMHRWAERDGTYDDLVAQRSQALAMLPSREG”, for which the “soluble on expression in E. coli” value is listed as “not soluble”.
“MMKQALRVAFGFLILWASVLHAEVRIVIDSGVDSGRPIGVVPFQWAGPGAAPEDIGGIVAADLRNSGKFNPLDRARLPQQPGSAQEVQPAAWSALGIDAVVVGQVTPNPDGSYNVAYQLVDTGGAPGTVLAQNSYKVNKQWLRYAGHTASDEVFEKLTGIKGAFRTRIAYVVQTNGGQFPYELRVSDYDGYNQFVVHRSPQPLMSPAWSPDGSKLAYVTFESGRSALVIQTLANGAVRQVASFPRHNGAPAFSPDGSKLAFALSKTGSLNLYVMDLASGQIRQVTDGRSNNTEPTWFPDSQNLAFTSDQAGRPQVYKVNINGGAPQRITWEGSQNQDADVSSDGKFMVMVSSNGGQQHIAKQDLATGGVQVLSSTFLDETPSLAPNGTMVIYSSSQGMGSVLNLVSTDGRFKARLPATDGQVKFPAWSPYLLEHHHHHH”: the “soluble on expression in E. coli” value is reported as “soluble”.
To “MEDIWPTIERTTISASVPEAPANFDEKPPFNRTINVYPLTNYTFGTKDAQAEKDKSVPERFKRMKDEYEVMGMRRSVEAVLIVHEHSLPHILLLQIGTTFYKLPGGELELGEDEISGVTRLLNETLGRTDGETNEWTIEDEIGNWWRPNFDPPRYPYIPAHVTKPKEHTKLLLVQLPSKSTFCVPKNFKLVAAPLFELYDNAAAYGPLISSLPTTLSRFNFIFNDSN” belongs “not soluble”; to “GSSAVNQENERLMEEYERLASELLEWIRRTIPWLENRTPEKTMQAMQKKLEDFRDYRRKHKPPKVQEKCQLEINFNTLQTKLRISNRPAFMPSEGKMVSDIAGAWQRLEQAEKGYEEWLLNEIRRLERLEHLAEKFRQKASTHETWAYGKEQILLQKDYESASLTEVRALLRKHEAFESDLAAHQDRVEQIAAIAQELNELDYHDAVNVNDRCQKICDQWDRLGTLTQKRREALERMEKLLETIDQLHLEFAKRAAPFNNWMEGAMEDLQDMFIVHSIEEIQSLITAHEQFKATLPEADGERQSIMAIQNEVEKVIQSYNIRISSSNPYSTVTMDELRTKWDKVKQLVPIRDQSLQEELARQHANERLRRQFAAQANAIGPWIQNKMEEIARSSIQITGALEDQMNQLKQYEHNIINYKNNIDKLEGDHQLIQEALVFDNKHTNYTMEHIRVGWELLLTTIARTINEVETQILTRD”, “soluble”.
On to “ELVMTQTPSSVSEPVGGTVTIKCQASQSISSWLSWYQQKPGQPPKLLIYDASNLASGVPSRFMGSGSGTEYTLTISGVQREDAATYYCLGGYPAASYRTAFGGGTELEIIRTVAAPSVFIFPPSDEQLKSGTASVVCLLNNFYPREAKVQWKVDNALQSGNSQESVTEQDSKDSTYSLSSTLTLSKADYEKHKVYACEVTHQGLSSPVTKSFNRGEC”, for which the “soluble on expression in E. coli” value is “soluble”.
On to HHASPRKQGKKENGPPHSHTLKGRRLVFDN, for which the “soluble on expression in E. coli” value is recorded as “soluble”.
The result for “MLVRLGYVAMTMNLKDSSPSGTVTVKTLAGLNEDETRLNKLRKVTAANLHNTLRILRYNKAYNISVYRFTSKLVPLATHPMVSHWDYVGEFRNEFKSLGDFVKENNFRVSAHPDHYTLLNSPSKEVFEASVRDLDYHVKLFEAMGLEDYKYKLVMHIGGLYKNKQTSVERFKENYAILPDRIRKRLIFENDDKIYTARDVLDICKELKVPMVLDVHHHNCVNNGERLEDMLKEIFDTWKDEYFPPKIHFSTPKSKENFRSHADEIDVNEFYRFLQIAKKLKKDFDVMIEAKNKDNALFKLSRELKTFDDIRWIDEGHFEIR” reads “not soluble”; that for “MSLGQDGFRLADYIREHVENGDKLVIRVSYHNTSLGFANPMREGVEKAKRELGVDAELIGPANGSAQEQVSELQTLISQQKVDGLAVSSASNDALKPVIAQAYNAGIPIISFNTNNPGSKQMAFVGQDLVQSGRFEAEQLRKELGDRKGKVVVFSVDTGAGWSNDRFSGFEAGMEGAEGIQIEGPINSGNEPRQAFNAVQNTMTANPDAIAIASLDCCSVDAAAKWVQQNGKKGEIIVVGFDVLPQTADFIRNGVIQFTISQNPVEQGYQSVKILNDFLKKNKPLRDVNTGTKLVDKSNIDEVPLEEGHHHHHH”, “soluble”; that for “MSENSIRLTQYSHGAGCGCKISPKVLETILHSEQAKFVDPNLLVGNETRDDAAVYDLGNGTSVISTTDFFMPIVDNPFDFGRIAATNAISDIFAMGGKPIMAIAILGWPINKLSPEIAREVTEGGRYACRQAGIALAGGHSIDAPEPIFGLAVTGIVPTERVKKNSTAQAGCKLFLTKPLGIGVLTTAEKKSLLKPEHQGLATEVMCRMNIAGASFANIEGVKAMTDVTGFGLLGHLSEMCQGAGVQARVDYEAIPKLPGVEEYIKLGAVPGGTERNFASYGHLMGEMPREVRDLLCDPQTSGGLLLAVMPEAENEVKATAAEFGIELTAIGELVPARGGRAMVEIR”, “soluble”.
As to “SAAPVDLELKKAFTELQAKVIDTQQKVKLADIQIEQLNRTKKHAHLTDTEIMTLVDETNMYEGVGRMFILQSKEAIHSQLLEKQKIAEEKIKELEQKKSYLERSVKEAEDNIREMLMARRAQ”, the “soluble on expression in E. coli” value is “soluble”.
Regarding “MFRNVAELVALAEKDSIKIAEVMIRQEVEVSGRSREEVIAQMDHHLSVMERAVERGLEGVVSRSGLTGGDAVRMQRYIEGGRFLSGETILDAVSKAMATNEVNAAMGVICATPTAGAAGVVPGTLFAVKEKLRPTRMEMIEFLFTAGAFGYVVANNASISGAAGGCQAEVGSAAGMAAAALVELAGGTPGQAAEAMAIALKNMLGLVCDPVAGLVEVPCVKRNAMGAANAMIAADMALAGIKSRIPCDEVIEAMYRIGAAMPVALKETAQGGLAATPTGRAIAARIFGASAASK”, the “soluble on expression in E. coli” value was “not soluble”.
On to “MGSDKIHHHHHHMENLKTYFYTEDGVVKAVDGVSFEVREGETLGIVGESGSGKSVTSLSIMRLLDQNGKIVDGKIIFKGRNLLELSENEMRKIRGKEIAMIFQEPMVALNPVFTIGDQIMEAIILHQNVSEKEARKMAIDLLRKVGIPEPEKRVDEYPHQLSGGMRQRAMIAMALSCRPSLLIADEPTTALDVTIQAQILELMKELQKEYGMAIILITHDMGVVAEMSDKVAVMYAGKVVEYGDVKTIFTEPKHPYTYALLESIPRIDVEQERLKSIPGNVPDPLNFPPGCKFHPRCEFFEKGKCDVEEPELEDLDGNHKVRCFFWQKLDEMRHAKSEV”, for which the “soluble on expression in E. coli” value is recorded as “not soluble”.
With “MNLPGAAEPQGGNEIPEYTGVAWHYGQPLVEQRYFERSGGFVDRSHRGVLCISGEDAAVFLNNLVSQKLIDLPHPWAGEALDLDIQGHVVHHMEIIATDEVFYVHVPAAQLESLHTFFTRMIFWSKVTIEVIDAAVISVISAQHLDALVDVPLPEALAVSPVIDFSLPRRDILVPRASLMAVAASLQEHGFQPAGMMAYTAARVRSVQPVMSLDMDATTIPHEAASLIGRGDHIGAVHLNKGCYRGQETVGRVENLGRSPRVLVMVLIDGSAPEQPHPAAPLTAGGRTVGFLGTVVDDFELGPIGLAVVKRSALKSATLQAGDDVALSIDPDSLPHDDGEKAGRVAINKLRGL”, the “soluble on expression in E. coli” value is “not soluble”.
For the sequence “MSDSCDGVECGPGKACRMLGGRPRCECAPDCSGLPARLQVCGSDGATYRDECELRAARCRGHPDLSVMYRGRCRK”, the “soluble on expression in E. coli” value is given as “soluble”.
To “MGSDKIHHHHHHMAEEIPVYLFTGFMDSGKTSLIKDTIFENDFANGSKGLIIMCEDGDVEYDMDKLKAANIQVAEIDSEDEFAAAKLNELNMQYLPEQVFIEYNGTWGIDKIIEAELPKGWVIVQSLATVDSTTFDLYMNNMRAMMQEQVFASDVVIFNRTDDDTDRGHLRRTIKNINRKAQIVYERKDGTIDERPEELPFDINQDVIELSDADYAIWYMDAMENYKKYDGKVVKFLALVYNPDKLRKGVMVPGRFAMTCCIEDVTFIGFKCKYEDESSIPHKSWITITARVHVEFAREYKGKGPVLYPVSIEPAEKPQDELVYFS” belongs “not soluble”; to “MGSDKIHHHHHHMIVVLKPGSTEEDIRKVVKLAESYNLKCHISKGQERTVIGIIGDDRYVVADKFESLDCVESVVRVLKPYKLVSREFHPEDTVIDLGDVKIGNGYFTIIAGPCSVEGREMLMETAHFLSELGVKVLRGGAYKPRTSPYSFQGLGEKGLEYLREAADKYGMYVVTEALGEDDLPKVAEYADIIQIGARNAQNFRLLSKAGSYNKPVLLKRGFMNTIEEFLLSAEYIANSGNTKIILCERGIRTFEKATRNTLDISAVPIIRKESHLPILVDPSHSGGRRDLVIPLSRAAIAVGAHGIIVEVHPEPEKALSDGKQSLDFELFKELVQEMKKLADALGVKVN”, “soluble”.
On to “SGIIKMAIRFDRRAYPPQITPKMCLLEWCRREKLPQPVYETVQRTIDRMFCSVVTVAEQKYQSTLWDKSKKLAEQTAAIVCLRSQGLPEGRLGEESPSLNKRKREAPDQDPGGPR”, for which the “soluble on expression in E. coli” value is “soluble”.
Regarding “MAAPEAEVLSSAAVPDLEWYEKSEETHASQIELLETSSTQEPLNASEAFCPRDCMVPVVFPGPVSQEGCCQFTCELLKHIMYQRQQLPLPYEQLKHFYRKPSPQAEEMLKKKPRATTEVSSRKCQQALAELESVLSHLEDFFARTLVPRVLILLGGNALSPKEFYELDLSLLAPYSVDQSLSTAACLRRLFRAIFMADAFSELQAPPLMGTVVMAQGHRNCGEDWFRPKLNYRVPSRGHKLTVTLSCGRPSIRTTAWEDYIWFQAPVTFKGFRE”, the “soluble on expression in E. coli” value was “soluble”.
Turning to “MIDVGGWYNKAELKAKGDEIVKEAKLATRREAESYRAALDAQAQQEARSKGVENTEHIRGMNPITPQEEAEFAAYLDESFSWIPSAFEGYGDPNPDDFDGIIKDLAKVEGTFGGSQSSTKNGDLAWTEKAKSEIEEWKGVFAENLYNNLLLPLPTIQDNHGKIAHVLTEAMKGTQNIYNGQKRDISQLADDTIKQLKKCGTRDGDNTKLGLTVAACLMGVAAAALALPSGGTSVYVTGIVMASISSSTIITNATVKPGDGDIGGKTVNDVIKSMSDGMSRISTEVSEQEQKVVKVLSKNYEMLTGLRQLGNSSKKPTPISPMRPTIADSKNPSSGLKPEGPQ”, the “soluble on expression in E. coli” value is reported as “not soluble”.
